The source of these data is publication doi:10.1101/699967 (bioRxiv, 2019).

As usually defined, the EC50 is the concentration giving half of the maximal effect. Lower therefore signals a more potent agent.

The assay has as its target HaloTag-Brd4-BD1_BD2-NanoLuc (aa 44-460) (human, UniProt O60885 44-460, HaloTag NanoBRET 618 fluorescent ligand on the HaloTag (experimental samples)). The assay is described as follows: FRET or BRET.

B1: H4(1-19)K5/8/16-triacetyl histone peptide (peptide)
peptide: SGRGKGGKGLGKGGAKRHR
modifications: acetyl-lysine at 5, 8 and 16
In the case of B1, the EC50 came to 7.5 ± 3.5 µM.
